Experimental data: US20160009770A1 (LAWRENCE BERKELEY NATIONAL LABORATORY, published 2016)
Side chains are listed from the residue outwards. Ends that are not written are not given here. dC16 = not defined here

Target: the molecule itself
Assay: UV-vis heme titration; reports an intact 4-helix bundle (self-association)

B1: dC16-BB-P2K conjugate 8 (designed binder)
peptide: dC16-GGGEIWKLHEEFLC([maleimide-PEG 2000 Da])KFEELLKLHEERLKKM
modifications: reading uncertain
notes: also called BB-dC16-P2K; H10H24-dC16-PEG2K
Does B1 bind?
Result: binds
